Patent US4016042A, “Substrate for the quantitative determination of enzymes” (Pentapharm A.G., priority 1974, dated 1977)

Test system: N=C(N)NCCC[C@H](NC(=O)[C@H](Cc1ccccc1)NC(=O)[C@@H]1CCCN1C(=O)c1ccccc1)C(=O)Nc1ccc([N+](=O)[O-])cc1
Assay: Km and vmax determination with substrate (Lineweaver-Burk), plasma kallikrein
Assay type: biochemical
Conditions: other: plasma kallikrein; substrate concentration varied, enzyme constant; measured at 405 nm
Procedure: As is evident from equation (2) constants Km and k3 determine the activity of the enzyme substrate for a given enzyme. For determining these constants the following procedure is followed:
The enzyme and the substrate are mixed in a buffer solution, and the reaction is followed spectrophotometrically for 2 to 30 minutes. The concentration of substrate [S] is varied, whereas the enzyme concentration [E] is kept constant. If the extinction (OD) (= optical density) is plotted in a co-ordinate system as a function of time, a curve is obtained the tangent of which (difference in extinction per minute, Δ OD/minute, from which the quantity in μmoles of pNA/min (v) can be calculated) at time zero corresponds to the ideal course of the hydrolysis. By means of this tangent the initial rate of the hydrolysis can be determined.
If 1/v is plotted against 1/[S], a Lineweaver-Burk diagram (cf. "Kurzes Lehrbuch der Biochemie" by P. KARSON, Georg Thieme-Verlag, Stuttgart, 1967, p. 70) is obtained from which vmax and Km can be determined graphically.
Km and k3 = vmax /E were determined with N^α-Bz-Pro-Phe-Arg-pNA^. HCl (i.e. the substrate prepared according to Example 1) for plasma kallikrein, trypsin, plasmin and thrombin.

Sequence of plasma kallikrein (Homo sapiens) (chain, as listed by the source): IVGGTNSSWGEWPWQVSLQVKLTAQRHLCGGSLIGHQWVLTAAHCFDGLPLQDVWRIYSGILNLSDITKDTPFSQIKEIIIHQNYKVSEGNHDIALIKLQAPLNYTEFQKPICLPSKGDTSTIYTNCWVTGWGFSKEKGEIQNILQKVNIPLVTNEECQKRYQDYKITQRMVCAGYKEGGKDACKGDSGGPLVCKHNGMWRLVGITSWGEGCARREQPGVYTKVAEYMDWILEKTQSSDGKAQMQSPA

plasma kallikrein (Homo sapiens)
Km: 282 µM
